# Results published in article PMC2694808.
# Several values for one entry are separate records, joined by “and”; a condition that tells them apart may be missing. Equal values may be shown once.
# System: Hfq
# Assay: EMSA
# Conditions: 40 or 100 mM NH4Cl, 10 mM Tris-HCl pH 7.5, 5 mM Mg acetate, 0.1 mM DTT, 37°C (EMSA 10 min; SPR Biacore 2000)
substance,measurement,value
invE RNA probe (140 nt),K half,1.7 nM and 6.2 nM
